Patent US20160266124A1 (published 2016)

B1: pHP1 (other)
chain: VDSGNDVTDIADDGCPKPPEIAHGYVEHSVRYQCKNYYKLRTEGDGVYTLNNEKQWINKAVGDKLPECEAVCGKPKNPANPVQRILGGHLDAKGSFPWQAKMVSHHNLTTGATLINEQWLLTTAKNLFLNHSENATAKDIAPTLTLYVGKKQLVEIEKVVLHPNYSQVDIGLIKLKQKVSVNERVMPICLPSKDYAEVGRVGYVSGWGRNANFKFTDHLKYVMLPVADQDQCIRHYEGSTVPEKKTPKSPVGVQPILNEHTFCAGMSKYQEDTCYGDAGSAFAVHDLEEDTWYATGILSFDKSCAVAEYGVYVKVTSIQDWVQKTIAEN
B2: pHP2 (other)
chain: VDSGNDVTDIADDGCPKPPEIAHGYVEHSVRYQCKNYYKLRTEGDGVYTLNDKKQWINKAVGDKLPECEADDGCPKPPEIAHGYVEHSVRYQCKNYYKLRTEGDGVYTLNNEKQWINKAVGDKLPECEAVCGKPKNPANPVQRILGGHLDAKGSFPWQAKMVSHHNLTTGATLINEQWLLTTAKNLFLNHSENATAKDIAPTLTLYVGKKQLVEIEKVVLHPNYSQVDIGLIKLKQKVSVNERVMPICLPSKDYAEVGRVGYVSGWGRNANFKFTDHLKYVMLPVADQDQCIRHYEGSTVPEKKTPKSPVGVQPILNEHTFCAGMSKYQEDTCYGDAGSAFAVHDLEEDTWYATGILSFDKSCAVAEYGVYVKVTSIQDWVQKTIAENHHHHHH

Biological target: 15F12
Assay: SPR

Row | Binder | Kd
1 | B1 | 0.3 nM
2 | B2 | 0.3 nM
